The results in this text go back to patent publication US20070265189A1 (published 2007).

The target of assay [1] is T1, soluble HIR ectodomain (sIR) (human, UniProt P06213 28-956, limits assumed).
T1 construct: extracellular domain
Description: FP on sIR, competitor FITC-RP9. An excerpt:
Fluorescence polarization assays (FP) were used for peptide competition studies.

Assay [2] deals with T2, soluble human insulin receptor-immunoglobulin heavy chain chimera (sIR-Fc) (human, UniProt P06213 28-956, limits assumed, Eu3+ (LANCE) label in the TR-FRET assays).
T2 construct: extracellular domain; Construct of Bass et al., 1996; also called HIR-immunoglobulin heavy chain chimera; not shown: immunoglobulin heavy chain constant domains
Description: TR-FRET on Eu-sIR-Fc, competitor b-S175. As for the experimental part:
(§1) The TR-FRET assays were performed in a 384-well white microplate with a final volume of 30 μl.
A general note: TR-FRET usually uses a lanthanide donor and a delayed reading to cut background.

The target in assay [3] is T3, Soluble IGF-1R (R&D Systems, Cat. # 391-GR/CF) (UniProt P08069 31-935, limits assumed).
T3 construct: extracellular domain; also called sIGF-1R; IGFR
Kind of assay: phage ELISA: IGF-1R ratio over background divided by IR ratio over background. In general terms: An ELISA detects its analyte on a solid surface through an enzyme-linked reagent.

Assay [4] addresses T4, Insulin receptor prepared according to Bass et al., 1996 (human, UniProt P06213 28-956, limits assumed).
T4 construct: extracellular domain; also called IR; soluble IR (Bass construct); not shown: immunoglobulin constant domains (Fc or lambda) of the Bass construct
Description: phage ELISA: IR ratio over background divided by IGF-1R ratio over background.

Assay [5] addresses T3, Soluble IGF-1R (R&D Systems, Cat. # …).
For assay [6], the target named is T4, Insulin receptor prepared according to ….
The target of assay [7] is T5, human insulin receptor (HIR) (human, UniProt P06213 28-1382, limits assumed). Kind of assay: competition with 125I-insulin, solubilised HIR.
The target in assay [8] is T6, human insulin receptor (HIR) (human, UniProt P06213 28-1382, limits assumed).
T6 construct: solubilised receptor
Description: 125I-insulin displacement, purified HIR.

Assay [9] concerns the target T2, soluble human insulin …. Description: FP on sIR-Fc, competitor FITC-RP9.
Assay [10] addresses T2, soluble human insulin …. Description: TR-FRET on Eu-sIR-Fc, competitor b-RP9. As for the experimental part:
Time-resolved fluorescence resonance energy transfer assays (TR-FRET) were used for peptide competition studies.
as §1

Assay [11] concerns the target T5, human insulin receptor (HIR). Kind of assay: radio-receptor assay on HIR, competitor 125I-insulin.
The target in assay [12] is T7, recombinant human IGF-1R (rhIGF-1R) (human, UniProt P08069 31-935).
T7 construct: extracellular domain; Coated on plates in the DELFIA assay and Eu3+ (LANCE) labeled in the TR-FRET assays
Kind of assay: TR-FRET; competitor against 15 nM b-20E2 on Eu-labeled rhIGF-1R.

Assay [13] concerns the target T8, soluble human insulin receptor-immunoglobulin heavy chain chimera (sIR-Fc) (human, UniProt P06213 28-956, limits assumed).
T8 construct: extracellular domain; Construct of Bass et al., 1996; not shown: immunoglobulin heavy chain constant domains
Kind of assay: fluorescence polarization; competitor against 1 nM FITC-RP9 on sIR-Fc.

B1: S380 (peptide)
peptide 1: EEDWLQRNANFYDWFVAELX
peptide 2: EEDWLQRNANFYDWFVAELX
modifications: C-terminal Lig′ joined to chemical linker 9
notes: C-C dimer through chemical linker 9; also called (EE-short-S175-Lig)2-9
Usually IC50 stands for the concentration that gives 50% inhibition. For the molecule B1, the IC50 stood at 0.5 nM in assay [1] and 10 nM in assay [2].

B2: B6Hα-3-F1-IR (peptide)
peptide: DYKDCSMAAVAEAGDDDDPFYHKLSELCQGSAAAGAP
notes: not shown: rest of the phage display fusion (remainder of E-Tag, phage coat protein)
Consider B2, for which, in assay [3], the “Comparison IGF-1R/IR” value is 1.8 ratio. Also, the “Comparison IR/IGF-1R” value in assay [4] came to 0.5 ratio. Further, the “Ratio over Background, IGF-1R” value in [5] was 2.4 ratio over background. For the same molecule, in [6], the “Ratio over Background, IR” value is 1.3 ratio over background.
As a reminder, the Kd is the concentration at which binding is half-saturated. Lower therefore signals higher affinity. Turning to SIEEEWAQIKCDVWGRGCPSY [S593], the Kd in assay [7] came to 2.2 nM.
On the same count and under the same terms, with HHHHHHKLDQEWAWVQCEVYGRGCPSESFYDWFERQLG [S481] the figure was 1.3 nM.

B3: S300 (peptide)
peptide 1: DWLQRNANFYDWFVAELX
peptide 2: DWLQRNANFYDWFVAELX
modifications: C-terminal Lig′ joined to linker 14
notes: dimer, C-C
For the molecule B3, the equilibrium dissociation constant (Kd) in assay [8] amounted to 50 nM.

B4: 20E2A-3-A3-IGFR (peptide)
peptide: DYKDGHYFGSFYDAIDQLVAGMLPGAAAGAP
notes: as for B2
As to B4, in assay [3], the “Comparison IGF-1R/IR” value was 1.9 ratio. Besides, the “Comparison IR/IGF-1R” value in assay [4] is 0.5 ratio. The “Ratio over Background, IGF-1R” value in assay [5] is 3 ratio over background. For the same molecule, the “Ratio over Background, IR” value in assay [6] worked out at 1.5 ratio over background.

B5: 20E2A-4-G11-IGFR (peptide)
peptide: DYKDMNVFVSFYDAIDQLVCQRIGCAAAGAP
notes: as for B2
For B5, the “Comparison IGF-1R/IR” value in assay [3] amounted to 2.6 ratio. Besides, the “Comparison IR/IGF-1R” value in assay [4] was 0.4 ratio. The “Ratio over Background, IGF-1R” value in assay [5] is 3.3 ratio over background. Moreover, the “Ratio over Background, IR” value in assay [6] was 1.3 ratio over background.
Molecule SLEEEWAQIECEVWGRGCPSGSLDESFYDWFERQL [S560] came in with a Kd in [7] of 0.014 nM. This counts as picomolar.

B6: B6L-3-G5-IR (peptide)
peptide: DYKDAETSAQVGWQRLWSVWPGDHWSTLDPFYHKLSELLRESGAAAAGAP
notes: as for B2
On to B6, for which the “Comparison IGF-1R/IR” value in assay [3] is 1.4 ratio. In addition, the “Comparison IR/IGF-1R” value in assay [4] worked out at 0.7 ratio. In addition, the “Ratio over Background, IGF-1R” value in assay [5] is 2 ratio over background. Besides, the “Ratio over Background, IR” value in [6] turned out to be 1.4 ratio over background.

B7: 40F-4-D1-IGFR (peptide)
peptide: DYKDLSCLAYSRHGIWRPSTDLGLGRSVGEGSVSTRWRGYDWFEAAAGAP
notes: as for B2
As to B7, in assay [3], the “Comparison IGF-1R/IR” value is 13.1 ratio. For the same molecule, the “Comparison IR/IGF-1R” value in [4] was found to be 0.1 ratio. Further, the “Ratio over Background, IGF-1R” value in assay [5] was 4.6 ratio over background. Also, in [6], the “Ratio over Background, IR” value is 0.3 ratio over background.
With SLEEEWAQVECEVYGRGCPSGSLDESFYHWFERQLG [S542], in assay [7], binding was put at a Kd of 0.027 nM. This lies in the picomolar range.
On the same count and under the same terms, with LDQEWAWVQSEVYGRGSPSESFYDWFERQL [S509] the figure was 5.7 nM.

B8: 20E2Bβ-3-C7-IR (peptide)
peptide: DYKDQSGSGDFYDWLSRLIRGNGDGAAAGAP
notes: as for B2
With B8, the “Comparison IGF-1R/IR” value in [3] turned out to be 2 ratio. The “Comparison IR/IGF-1R” value in [4] was 0.5 ratio. Besides, the “Ratio over Background, IGF-1R” value in [5] worked out at 3.1 ratio over background. Further, the “Ratio over Background, IR” value in assay [6] is 1.5 ratio over background.
Regarding SLEEEWAQIECEVWGRGCSGSLDESFYDWFERQL [S561], in assay [7], the Kd was found to be 0.018 nM.
Consider FHENFYDWFVRQVSKK (also called D117) [H2C], for which the IC50 came to 37 nM in assay [1]; 50 nM in assay [9]; 1630 nM in assay [10]; 410 nM in [2]; 700 nM in assay [11].

B9: R20β-4-E8-IR (peptide)
peptide: DYKDVRGFQGGTVWPGYEWLRNAAAAAGAP
notes: as for B2
Consider B9, for which, in [3], the “Comparison IGF-1R/IR” value amounted to 9.7 ratio. Also, the “Comparison IR/IGF-1R” value in [4] turned out to be 0.1 ratio. In addition, the “Ratio over Background, IGF-1R” value in [5] came out at 34.9 ratio over background. Moreover, in assay [6], the “Ratio over Background, IR” value amounted to 3.6 ratio over background.

B10: 20E2A-3-A4-IGFR (peptide)
peptide: DYKDAGSVTSFYDAMEQLVATGTSAAAAGAP
notes: as for B2
For B10, the “Comparison IGF-1R/IR” value in [3] was found to be 1.4 ratio. Moreover, in assay [4], the “Comparison IR/IGF-1R” value was determined as 0.7 ratio. Further, in assay [5], the “Ratio over Background, IGF-1R” value stood at 2.5 ratio over background. Also, the “Ratio over Background, IR” value in assay [6] amounted to 1.8 ratio over background.
The molecule SIEEEWAQIKCDVWGRGCPSESFYDWFERQL [S517] registered a Kd in assay [7] of 0.006 nM.

B11: S337 (peptide)
peptide 1: GSLDESFYDWFERQLGKKX
peptide 2: GSLDESFYDWFERQLGKKX
modifications: C-terminal Lig′ joined to chemical linker 23
notes: C-C dimer through chemical linker 23; also called (RP9-Lig)2-23
For B11, the figures for the IC50 in [1], in [9] and in [2] were 0.2 nM, 1 nM and 0.2 nM, respectively.

B12: B6Hα-3-E6-IR (peptide)
peptide: DYKDCGAKMTGTPNDPFYHKLSELLQRGAAAGAP
notes: as for B2
As to B12, the “Comparison IGF-1R/IR” value in [3] worked out at 1.9 ratio. The “Comparison IR/IGF-1R” value in assay [4] was 0.5 ratio. Also, in assay [5], the “Ratio over Background, IGF-1R” value came to 2.3 ratio over background. Also, the “Ratio over Background, IR” value in assay [6] is 1.2 ratio over background.

B13: 40F-4-B1-IGFR (peptide)
peptide: DYKDGLDHSDAVGVHLGFAWPAQARGRWEAGGLEDTWAGYDWLAAAGAP
notes: as for B2
On to B13, for which the “Comparison IGF-1R/IR” value in assay [3] was determined as 13.1 ratio. The “Comparison IR/IGF-1R” value in assay [4] was 0.1 ratio. In [5], the “Ratio over Background, IGF-1R” value turned out to be 3 ratio over background. Further, in [6], the “Ratio over Background, IR” value turned out to be 0.2 ratio over background.

B14: S550 (peptide)
peptide: GSLDESFYDWFERQLGXK
modifications: as printed: Ac-GSLDESFYDWFERQLG-POX-K; N-terminal acetyl; POX between G and the C-terminal K
notes: POX is not explained
As to B14, binding in assay [7] was put at a Kd of 40 nM. This lies in the double-digit nanomolar range.

B15: S229 (peptide)
peptide 1: SDGFYNAIELLSX
peptide 2: KHLCVLEELFWGASLFGYCSGKKX
modifications: C-terminal Lig joined to linker 12
notes: heterodimer F2-F4, C-C
In assay [8], B15 came in with a Kd of 4.4 nM. In other words, the single-digit nanomolar range.

B16: S414 (peptide)
peptide 1: ESFYDWFERQLGKX
peptide 2: ESFYDWFERQLGKX
modifications: C-terminal Lig′ joined to chemical linker 14
notes: Lig′ = lysine with a 2-aminohydroxyacetyl group on the side chain amino group; also called (truncated(-GSLD)RP9(-KK))2-14
In the case of B16, the IC50 in [1] is 0.2 nM.
With SLEEEWAQVECEVYGRGCPSESFYDWFVRQLG [S555], the Kd in [7] stood at 0.057 nM.
The molecule LEEEWAQIQREVWHSPASESFYDWFERQL [S595] showed a Kd in assay [7] of 0.62 nM.
Molecule TFYSCLASLLTGTPQPNRGPWERCRKK [S327] came in with a Kd in assay [8] of 2700 nM.
Take FHENFYDWFVRQVSKK [H2C (D117)]: the IC50 is 460 nM in assay [12] and 66 nM in assay [13].
Turning to SLEEEWAQIQHELYGPAESESFYDWFERQL [S596], binding in assay [7] was characterised by a dissociation constant (Kd) of 0.045 nM.
